This note sets out measurements from article PMC11270187 (Antibodies, 2024).

Assay [1] deals with T1, HLA-DR on BJAB cells (Homo sapiens; endogenous HLA-DR of BJAB …).
T1 construct: HLA-DR α chain, endogenous on BJAB B-lymphoblastoid cells; HLA-DR β chain, endogenous on BJAB B-lymphoblastoid cells; also called HLA-DR-expressing B-lymphoblastoid cell line BJAB; source: endogenous, on BJAB cells
Kind of assay: flow cytometry on cells; screen: purified IgGs at 10 µg/mL on HLA-DR-expressing BJAB cells, Fc Block, 1 h at 4 °C, detected with AF488 goat anti-human IgG Fcγ. The conditions noted are these: one partner purified. For orientation: A flow cytometer gives signals particle by particle.

In assay [2] the target is T2, TEV-cleaved recombinant HLA-DR (Homo sapiens, …).
T2 construct: also called TEV-cleaved HLA-DR; source: HEK 293S (GnT I-/-), purified (HisTrap Ni-NTA, SEC), TEV-cleaved; for crystallization also EndoH-treated and purified a second time
Kind of assay: BLI; Fabs loaded on FAB2G biosensors; two-fold dilutions of TEV-cleaved HLA-DR from 500 nM; 25 °C; PBS pH 7.4, 0.01% BSA, 0.002% Tween; 1:1 model. The conditions noted are these: both partners purified. For orientation: Biolayer interferometry detects binding as a change in optical thickness at a sensor tip.

In assay [3] the target is T1, HLA-DR on BJAB cells. Put plainly: flow cytometry on cells; full antibody titration of purified IgGs on HLA-DR-expressing BJAB cells, Fc Block, 1 h at 4 °C, detected with AF488 goat anti-human IgG Fcγ; also after storage of the IgGs at -20, 4 or 40 °C for up to 4 weeks. The conditions noted are these: one partner purified.

A word on the Kd: it is the concentration at which binding is half-saturated.

B1: parental 44H10 IgG (antibody, V domains shown)
VH: QVQLKESGPGLVAPSQSLSITCTVSGFSLTSYGVHWVRQPPGKGLEWLGVIWAGGSINYNSALMSRLSISKDNFKSQVFLKMSSLQTDDTAMYYCARAYGDYVHYAMDYWGQGTSVTASS
VL: DIQMTQSPSSLSASLGQRVSLTCRASQEISGYLTWLQQKPDGTIKRLVYAASTLDSGVPKRFSGSRSGSDYSLTISSLESEDFADYYCLQYTNYPLTFGAGTKLELK
notes: murine IGHV2-9; Fab part also in PDB 8EUQ; murine IGKV9-124; also in PDB 8EUQ; IgG; also called mAb 44H10; murine mAb 44H10; source: FreeStyle 293-F, transfected, purified (protein A, SEC)
Take B1: the binding result with HLA-DR on BJAB cells [1] was “binds”.

B2:  (Fab, V domains shown)
VH: QVQLQESGPGLVKPSETLSLTCTVSGFSLTSYGVHWIRQPPGKGLEWIGVIWAGGSINYNSALMSRVTISKDTSKNQVSLKLSSVTAADTAVYYCARAYGDYVHYAMDYWGQGTLVTVSS
VL: DIQMTQSPSSLSASVGDRVTITCRASQEISGYLTWLQQKPGKAPKLLIYAASTLDSGVPSRFSGSGSGTDFTLTISSLQPEDFATYYCLQYTNYPLTFGQGTKLEIK
notes: as the heavy chain of m11 with the changes below; as the light chain of m11; also called V14-V71K/F78V double mutant; V14-V71K-F78V; source: FreeStyle 293-F, transfected, purified (KappaSelect, MonoS, SEC)
Take B2: in assay [2], the equilibrium dissociation constant (Kd) is 206 nM.

B3: humanized 44H10 version 19 IgG (V17 with light chain G66R back-mutation) (antibody, V domains shown)
VH: QVTLKESGPVLVKPTETLTLTCTVSGFSLTSYGVHWIRQPPGKALEWLAVIWAGGSISYSTSLMSRLTISKDTSKSQVVLTMTNMDPVDTATYYCARAYGDYVHYAMDYWGQGTLVTVSS
VL: DIQMTQSPSSLSASVGDRVTITCRASQEISGYLTWLQQKPGKAPKLLIYAASTLDSGVPSRFSGSRSGTDFTLTISSLQPEDFATYYCLQYTNYPLTFGQGTKLEIK
notes: as the heavy chain of m5; as the light chain of m5 with the change below; IgG with human Fc; also called V19; source: FreeStyle 293-F, transfected, purified (protein A, SEC)
B3: the “fold improvement of EC50 against V17” value with HLA-DR on BJAB cells [3] was approximately 3 fold.

B4: humanized 44H10 version 22 IgG (antibody, V domains shown)
VH: QVQLQESGPGLVKPSETLSLTCTVSGFSLTSYGVHWIRQPPGKGLEWIGVIWAGGSINYNSALMSRVTISKDTSKNQVSLKLSSVTAADTAVYYCARAYGDYVHYAMDYWGQGTLVTVSS
VL: DIQMTQSPSSLSASVGDRVTITCRASQEISGYLTWLQQKPGKAPKLLIYAASTLDSGVPKRFSGSRSGTDFTLTISSLQPEDFATYYCLQYTNYPLTFGQGTKLEIK
notes: as the heavy chain of m10 (IGHV4-59 with Kabat 44H10 CDRs) with the back-mutations below; as the light chain of m5 (IGKV1-16, printed here as IGHK1-16, with Kabat 44H10 CDRs) with the back-mutations below; IgG with human Fc; also called V22; lead humanized candidate; source: FreeStyle 293-F, transfected, purified (protein A, SEC)
Turning to B4, the “fold reduction in EC50 against parental 44H10 IgG” value with HLA-DR on BJAB cells [3] was less than 2 fold.

B5: humanized 44H10 version 20 IgG (V17 with light chain S60K back-mutation) (antibody, V domains shown)
VH: QVTLKESGPVLVKPTETLTLTCTVSGFSLTSYGVHWIRQPPGKALEWLAVIWAGGSISYSTSLMSRLTISKDTSKSQVVLTMTNMDPVDTATYYCARAYGDYVHYAMDYWGQGTLVTVSS
VL: DIQMTQSPSSLSASVGDRVTITCRASQEISGYLTWLQQKPGKAPKLLIYAASTLDSGVPKRFSGSGSGTDFTLTISSLQPEDFATYYCLQYTNYPLTFGQGTKLEIK
notes: as the heavy chain of m5; as the light chain of m5 with the change below; IgG with human Fc; also called V20; source: FreeStyle 293-F, transfected, purified (protein A, SEC)
Turning to B5, the “fold improvement of EC50 against V17” value with HLA-DR on BJAB cells [3] was approximately 3 fold.

B6: humanized 44H10 version 21 IgG (V17 with light chain S60K and G66R back-mutations) (antibody, V domains shown)
VH: QVTLKESGPVLVKPTETLTLTCTVSGFSLTSYGVHWIRQPPGKALEWLAVIWAGGSISYSTSLMSRLTISKDTSKSQVVLTMTNMDPVDTATYYCARAYGDYVHYAMDYWGQGTLVTVSS
VL: DIQMTQSPSSLSASVGDRVTITCRASQEISGYLTWLQQKPGKAPKLLIYAASTLDSGVPKRFSGSRSGTDFTLTISSLQPEDFATYYCLQYTNYPLTFGQGTKLEIK
notes: as the heavy chain of m5 (IGHV2-26 with Kabat 44H10 CDRs); as the light chain of m5 with the changes below; IgG with human Fc; also called V21; source: FreeStyle 293-F, transfected, purified (protein A, SEC)
With B6, the “fold improvement of EC50 against V17” value with HLA-DR on BJAB cells [3] was approximately 3 fold.
